The target of test [1] is Lys63-linked polyubiquitin (UniProt P0CG48). The test can be described thus: co-immunoprecipitation (anti-FLAG beads), immunoblot quantification. The conditions noted are these: HEK293 cells; n = 3; parent: est. 1.0; read off a plot. Background: A western blot detects proteins with antibodies after separation by electrophoresis.
For test [2], the target named is p97/VCP (valosin-containing protein) (UniProt P55072). Described as above. The conditions noted are these: HEK293 cells; n = 3; parent: est. 1.0; read off a plot.
UniProt P55072, sequence (P55072 whole entry): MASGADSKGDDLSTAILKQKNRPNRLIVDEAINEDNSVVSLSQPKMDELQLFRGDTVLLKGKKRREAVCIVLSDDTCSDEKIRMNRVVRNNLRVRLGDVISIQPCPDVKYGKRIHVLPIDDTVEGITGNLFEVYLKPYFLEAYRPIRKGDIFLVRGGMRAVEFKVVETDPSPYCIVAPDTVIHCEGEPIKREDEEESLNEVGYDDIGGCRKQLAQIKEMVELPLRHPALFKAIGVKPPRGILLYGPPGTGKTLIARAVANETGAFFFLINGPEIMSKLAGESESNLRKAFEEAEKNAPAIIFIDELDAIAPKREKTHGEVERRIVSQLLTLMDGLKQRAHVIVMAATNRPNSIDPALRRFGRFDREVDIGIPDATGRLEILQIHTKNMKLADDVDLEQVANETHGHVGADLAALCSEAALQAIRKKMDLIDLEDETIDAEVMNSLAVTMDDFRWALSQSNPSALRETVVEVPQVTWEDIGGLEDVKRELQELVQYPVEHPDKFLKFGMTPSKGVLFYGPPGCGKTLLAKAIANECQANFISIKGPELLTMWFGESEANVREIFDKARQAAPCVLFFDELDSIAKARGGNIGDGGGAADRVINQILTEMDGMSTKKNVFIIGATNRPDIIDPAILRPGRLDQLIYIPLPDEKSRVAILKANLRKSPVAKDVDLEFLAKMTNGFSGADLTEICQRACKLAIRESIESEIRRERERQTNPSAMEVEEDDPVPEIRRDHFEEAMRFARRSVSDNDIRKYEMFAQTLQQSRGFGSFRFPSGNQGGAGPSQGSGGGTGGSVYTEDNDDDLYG

As for “RHBDL4mycFLAG (from UniProt Q8TEB9) AllY>F”, the ratio to parent in test [1] was 0.36; in test [2], 0.22.
